Two substances from publication PMC10420310, “The Complex Proteolipidic Behavior of the SARS-CoV-2 Envelope Protein Channel: Weak Selectivity and Heterogeneous Oligomerization” (International Journal of Molecular Sciences, 2023) can be followed below.

Values joined by “and” are separate entries in the source; they are usually repeats but may differ in a detail not shown here. Equal entries are not always repeated.

Experiment [1] concerns the target full-length SARS-2 E protein (E-FL) (SARS-CoV-2) (UniProt P0DTC4). The experiment in a line: AUC; sedimentation velocity, E-FL at DPR 125 in 5 mM C14SB micelles, 50 mM Tris-HCl pH 7.3, 100 mM NaCl, 29.4% D2O, 20 °C, 50,000 rpm.
The target of experiment [2] is truncated SARS-2 E protein corresponding to residues 8–65 with N-terminal 6-His tag (6H-E-TR) (SARS-CoV-2) (UniProt P0DTC4). As to the kind of experiment: AUC; sedimentation velocity, His-E-TR at DPR 70 in 5 mM C14SB micelles, 50 mM Tris-HCl pH 7.3, 100 mM NaCl, 29.4% D2O, 20 °C, 50,000 rpm.
The target is the same in experiment [3]. The experiment in a line: AUC; sedimentation velocity, His-E-TR at DPR 25 in 5 mM C14SB micelles, 50 mM Tris-HCl pH 7.3, 100 mM NaCl, 29.4% D2O, 20 °C, 50,000 rpm.

Consider “full-length SARS-2 E protein (E-FL) (from UniProt P0DTC4 1-75) (natural protein)”, for which the stoichiometry N in experiment [1] is 2 and 4.6.

With “truncated SARS-2 E protein corresponding to residues 8–65 with N-terminal 6-His tag (6H-E-TR) (from UniProt P0DTC4 8-65) (domain or fragment)”, the stoichiometry N in experiment [2] stood at 2.56; in experiment [3], 3.

The term stoichiometry N denotes the number of molecules, sites or subunits per partner or assembly.
